Data reported in article PMC8298490, “Structure and function of an Arabidopsis thaliana sulfate transporter” (Nature Communications, 2021).
Numbering of substitutions follows the chain as printed. In names and notes the source's numbering stands.

T1: AtSULTR4;1 ΔSTAS (Arabidopsis thaliana, UniProt Q9FY46)
T1 construct: gene SULTR4; STAS domain (residues 503-685) truncated, transmembrane domain only, C-terminal His6-tag cleaved by TEV, High Five insect cells, monomeric by SEC
T1 sequence (Q9FY46 1-502): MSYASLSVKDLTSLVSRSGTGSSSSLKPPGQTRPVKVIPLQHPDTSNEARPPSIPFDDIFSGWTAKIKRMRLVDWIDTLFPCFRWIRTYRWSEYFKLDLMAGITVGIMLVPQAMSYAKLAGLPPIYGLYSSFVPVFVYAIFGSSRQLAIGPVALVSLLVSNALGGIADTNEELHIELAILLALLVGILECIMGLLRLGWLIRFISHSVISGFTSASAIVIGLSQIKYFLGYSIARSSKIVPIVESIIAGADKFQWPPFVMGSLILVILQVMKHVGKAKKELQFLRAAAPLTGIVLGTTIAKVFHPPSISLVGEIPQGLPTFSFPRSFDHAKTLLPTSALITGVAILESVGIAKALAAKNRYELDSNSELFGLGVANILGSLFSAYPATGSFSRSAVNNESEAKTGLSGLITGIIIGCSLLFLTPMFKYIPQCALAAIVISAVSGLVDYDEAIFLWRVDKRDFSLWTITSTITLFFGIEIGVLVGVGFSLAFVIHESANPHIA

B1: Arabidopsis thaliana sulfate transporter SULTR4;1 (AtSULTR4;1), wild type (natural protein, UniProt Q9FY46 24-685, looked up)
chain: SSLKPPGQTRPVKVIPLQHPDTSNEARPPSIPFDDIFSGWTAKIKRMRLVDWIDTLFPCFRWIRTYRWSEYFKLDLMAGITVGIMLVPQAMSYAKLAGLPPIYGLYSSFVPVFVYAIFGSSRQLAIGPVALVSLLVSNALGGIADTNEELHIELAILLALLVGILECIMGLLRLGWLIRFISHSVISGFTSASAIVIGLSQIKYFLGYSIARSSKIVPIVESIIAGADKFQWPPFVMGSLILVILQVMKHVGKAKKELQFLRAAAPLTGIVLGTTIAKVFHPPSISLVGEIPQGLPTFSFPRSFDHAKTLLPTSALITGVAILESVGIAKALAAKNRYELDSNSELFGLGVANILGSLFSAYPATGSFSRSAVNNESEAKTGLSGLITGIIIGCSLLFLTPMFKYIPQCALAAIVISAVSGLVDYDEAIFLWRVDKRDFSLWTITSTITLFFGIEIGVLVGVGFSLAFVIHESANPHIAVLGRLPGTTVYRNIKQYPEAYTYNGIVIVRIDSPIYFANISYIKDRLREYEVAVDKYTNRGLEVDRINFVILEMSPVTHIDSSAVEALKELYQEYKTRDIQLAISNPNKDVHLTIARSGMVELVGKEWFFVRVHDAVQVCLQYVQSSNLEDKHLSFTRRYGGSNNNSSSSNALLKEPLLSVEK
notes: A. thaliana SULTR4;1, codon-optimized gene (NCBI NM_121358.3); residues 1-69 and 645-685 are called the N- and C-termini and were not resolved; the model holds residues 70-644; Homodimer in the cryo-EM structure; also called WT; source: High Five (Trichoplusia ni) insect cells, baculovirus; purified (LMNG solubilisation, Talon cobalt resin, SEC); not shown: His6, C-terminal, cleaved
B2: AtSULTR4;1 K353E (natural protein, Arabidopsis thaliana, UniProt Q9FY46 24-685, looked up)
chain: B1 chain with K330E
notes: A. thaliana SULTR4;1 (NCBI NM_121358.3) with the charge-reversal mutation K353E on TM8 (core domain); Made by QuikChange on the wild-type construct; source: High Five insect cells, baculovirus; purified following the same protocol as wild type; not shown: His6, C-terminal, cleaved
B3: AtSULTR4;1 D547R (natural protein, Arabidopsis thaliana, UniProt Q9FY46 24-685, looked up)
chain: B1 chain with D524R
notes: A. thaliana SULTR4;1 (NCBI NM_121358.3) with the charge-reversal mutation D547R on helix alpha1 of the STAS domain; Made by QuikChange on the wild-type construct; source: High Five insect cells, baculovirus; purified following the same protocol as wild type; not shown: His6, C-terminal, cleaved
B4: AtSULTR4;1 R550E (natural protein, Arabidopsis thaliana, UniProt Q9FY46 24-685, looked up)
chain: B1 chain with R527E
notes: A. thaliana SULTR4;1 (NCBI NM_121358.3) with the charge-reversal mutation R550E on helix alpha1 of the STAS domain; Made by QuikChange on the wild-type construct; source: High Five insect cells, baculovirus; purified following the same protocol as wild type; not shown: His6, C-terminal, cleaved

Tests used:
AtSULTR4;1 ΔSTAS = biological target: T1, AtSULTR4;1 ΔSTAS; test: […]SO4 uptake into proteoliposomes, […] min; assay type: biochemical; details: 13.3 µM 35SO4, pH 7.5 inside / 5.5 outside; labelled compound
[1] = biological target: the molecule itself; test: cryo-EM structure; AtSULTR4;1 in GDN, 20 mM MES pH 6.0, 150 mM Na2SO4, 5 mM BME; refined with C2 symmetry; overall resolution 2.8 Å
[2] = biological target: the molecule itself; test: SEC; purified protein on SRT-3C SEC-300 column, 20 mM HEPES, 150 mM NaCl, 5 mM BME, 0.01% LMNG; elution profile compared with wild type

Molecule	binding result [2]	also measured
O=S(=O)(O)O [SO4^2−]	–	35SO4 uptake into proteoliposomes, 5 min (AtSULTR4;1 ΔSTAS): ΔSTAS retains a lower level of transport activity
B1	–	stoichiometry N [1]: 2
B2	binds	–
B3	binds	–
B4	binds	–
